Source: article PMC3588017, “Measurement of the Interaction Between Recombinant I-domain from Integrin alpha 2 beta 1 and a Triple Helical Collagen Peptide with the GFOGER Binding Motif Using Molecular Force Spectroscopy” (International Journal of Molecular Sciences, 2013)

Key:
[1] = target: GFOGER peptide, synthetic triple helical collagen related peptide GPC[GPP]5GFOGER[GPP]5GPCG; assay: dynamic force spectroscopy (AFM); as a1, repeated over a range of loading rates; most dominant peak force against loading rate fitted with the Bell-Evans model; koff at zero applied force; conditions: both partners purified
[2] = target: GPP peptide, synthetic triple helical control peptide GPC[GPP]10GPCG; assay: as above; conditions: both partners purified

B1: I-domain from integrin alpha 2 beta 1, locked open I-domain cleaved of its GST tag (CLOI) (domain or fragment)
chain: CPSLIDVVVVCDESNSIYPWDAVKNFLEKFVQGLDIGPTKTQVGLIQYANNPRVVFNLNTYKTKEEMIVATSQTSQYGGDLTNTFGAIQYARKYAYSAASGGRRSATKVMVVVTDGESHDGSMLKAVIDQCNHDNILRFGIAVLGYLNRNALDTKNLIKEIKAIASIPTERYFFNVSDEAALLEKAGTLGEQIFSIEG
With B1 the koff [1] was 0.44 s⁻¹ and the koff [2] was 11 s⁻¹.
